Test results as given in paper PMC9456106, “PET Probes for Preclinical Imaging of GRPR-Positive Prostate Cancer: Comparative Preclinical Study of [^68Ga]Ga-NODAGA-AMBA and [^44Sc]Sc-NODAGA-AMBA” (International Journal of Molecular Sciences, 2022).

What was measured:
[1] = Octanol/water partition coefficient (logP); assay type: physicochemical; conditions: 1-octanol/water, triplicates
Procedure: For the determination of LogP value and the in-vitro serum stability, the same protocol was used as was described earlier by our research group. Briefly, for the determination of the partition coefficient (logP), 10 µL of [^68Ga]Ga-NODAGA-AMBA or [^44Sc]Sc-NODAGA-AMBA solution (approximately 5 MBq) was mixed with 500 µL of 1-octanol and 490 µL of water in a test tube. To reach equilibrium state, the mixture was firmly stirred and then centrifuged (20.000 rpm, 5 min). One-hundred microliters of the samples were pipetted into vials from each layer, and the radioactivity of the fractions was determined with a calibrated gamma counter (Perkin-Elmer Packard Cobra, Waltham, MA, USA). The measurements were performed in triplicates for both labelled compounds.

[2] = In-vitro stability in mouse plasma, Na2EDTA and oxalic acid (radio-HPLC); assay type: in vitro ADME; conditions: mixed with mouse plasma, oxalic acid
Procedure: For in-vitro stability measurements, the labelled compounds were mixed with mouse plasma, Na2EDTA, and oxalic acid. Samples were injected at different time points to the HPLC with and without a column.
After 15 and 90 min incubation time, a 50 µL sample was taken and 50 µL abs. EtOH was added to the aliquots. Then, the samples were centrifuged (20.000 rpm, 5 min), and the supernatant was removed and diluted with the eluent of HPLC. This was followed by the performance of the analytical measurements.

[3] = Ex-vivo biodistribution in healthy control mice; parameters: species or system CB17 SCID mice; conditions: i.v.; for accumulation in the adrenal glands / accumulation in the kidneys / accumulation in the pancreas / accumulation in the urine: 30-180 min, approx.; for radiotracer uptake in blood, liver, spleen, gastrointestinal tract and thoracic organs: each investigated time point
Procedure: (§1) Thirty, 60, 120, and 180 min after the intravenous injection of 11.3 ± 1.4 MBq [^68Ga]Ga-NODAGA-AMBA or [^44Sc]Sc-NODAGA-AMBA healthy control and PC-3 tumor-bearing mice were euthanized with 5% Forane, sacrificed, and tissue samples were taken from the selected organs. The weight and the radioactivities of both the tumors and normal tissues were measured with calibrated gamma counter, and the uptake was expressed as %ID/g tissue.

[4] = Pharmacokinetics (blood clearance) in healthy control mice; assay type: in vivo; conditions: healthy control CB17 SCID mice, i.v.
Procedure: (§2) For pharmacokinetic studies, healthy control CB17 SCID mice (n = 12) were injected intravenously with 10.8 ± 1.6 MBq of [^68Ga]Ga-NODAGA-AMBA or [^44Sc]Sc-NODAGA-AMBA under isoflurane anesthesia. Thereafter, approximately 30 μL blood samples were collected from the saphenous vein into a capillary tube at the following time points: 30, 60, 120, and 180 minutes. The volume of the blood was determined using a digital caliper. Blood samples were placed in a γ-counter and the radioactivity of each sample was measured. Results were expressed as a percentage of the injected activity per mL (% ID/mL). For the determination of in vivo serum stability of [^68Ga]Ga-NODAGA-AMBA and [^44Sc]Sc-NODAGA-AMBA, blood samples were taken from the mice at the previously mentioned time points (30, 60, 120, and 180 min). Firstly, the blood samples were centrifuged at 4°C, 10,000 rpm for 5 min. Thereafter, 50 μL samples were taken from the supernatant and mixed with ice-cold abs. ethanol (50 μL) and centrifuged again at 4°C, 10 000 rpm for 5 min. The supernatants were analyzed by analytical radio-HPLC. In all cases, the radio-HPLC chromatograms were compared to the original chromatograms of the radiotracers to find any metabolite forms.

[5] = In-vivo stability by analytical radio-HPLC of blood samples; parameters: species or system CB17 SCID mice; conditions: healthy mice, samples at 30, 60, 120, 180 min
Procedure: as §2

PC-3 tumors = assay: Ex-vivo biodistribution of PC-3 tumor-bearing mice; assay type: in vivo, CB17 SCID mice; conditions: for accumulation in PC3 tumors, blocked: 15 mg/kg BBN blocking, 15 mg/kg
Procedure: For animal experiments, 12-week-old female CB17 SCID (n = 64) were used. For the induction of GRPR-expressing tumor model, mice were anesthetized with a dedicated small animal anesthesia device (Tec3 Isoflurane Vaporizer, Eickemeyer Veterinary Equipment, Sunbury-on-Thames, UK) applying 3% isoflurane (Forane, AbbVie), 0.4 L/min O2, and 1.4 L/min N2O, and 5 × 10^6 PC-3 tumor cells in 0.9% NaCl (100 µL) were injected subcutaneously into the left shoulder area of CB17 SCID mice. In-vivo and ex-vivo experiments were carried out 14 ± 1 days after subcutaneous injection of tumor cells at the tumor volume of approximately 86 mm^3.
as §1
For blocking experiments, PC-3 tumor-bearing mice were injected intravenously with 15 mg/kg of BBN (Sigma-Aldrich) 30 min prior to the injection of 11.3 ± 1.4 MBq [^68Ga]Ga-NODAGA-AMBA or [^44Sc]Sc-NODAGA-AMBA and in-vivo and ex-vivo organ distribution studies were performed as described above.

CSCC[C@H](NC(=O)[C@H](CC(C)C)NC(=O)[C@H](Cc1c[nH]cn1)NC(=O)CNC(=O)[C@@H](NC(=O)[C@H](C)NC(=O)[C@H](Cc1c[nH]c2ccccc12)NC(=O)[C@H](CCC(N)=O)NC(=O)c1ccc(NC(=O)CNC(=O)CCC(C(=O)O)N2CCN(CC(=O)O)CCN(CC(=O)O)CC2)cc1)C(C)C)C(N)=O (stereo partly shown) [[^68Ga]Ga-NODAGA-AMBA] [metal not drawn]
octanol/water partition coefficient (logP) [1]: −2.75 ± 0.18
RCP, in-vitro stability ([2]; 15 min): approximately 92%
RCP, in-vitro stability ([2]; 90 min): approximately 85%
accumulation in the adrenal glands [3]: 0.5–3 %ID/g
accumulation in the kidneys [3]: 2–8 %ID/g
accumulation in the pancreas [3]: 1–4 %ID/g
accumulation in the urine [3]: 250–450 %ID/g
radiotracer uptake in blood, liver, spleen, gastrointestinal tract and thoracic organs [3]: Low radiotracer uptake
half-life in the blood [4]: less than 30 minutes
in-vivo stability [5]: remained stable
accumulation in PC3 tumors, blocked (PC-3 tumors; 60 min): 0.60 ± 0.22 %ID/g
accumulation in PC3 tumors (PC-3 tumors; 60 min after i.v. injection): 3.78 ± 0.93 %ID/g
accumulation in PC3 tumors, blocked (PC-3 tumors; 120 min): 0.48 ± 0.14 %ID/g
accumulation in PC3 tumors (PC-3 tumors; 120 min after i.v. injection): 3.29 ± 1.20 %ID/g

CSCC[C@H](NC(=O)[C@H](CC(C)C)NC(=O)[C@H](Cc1c[nH]cn1)NC(=O)CNC(=O)[C@@H](NC(=O)[C@H](C)NC(=O)[C@H](Cc1c[nH]c2ccccc12)NC(=O)[C@H](CCC(N)=O)NC(=O)c1ccc(NC(=O)CNC(=O)CCC(C(=O)O)N2CCN(CC(=O)O)CCN(CC(=O)O)CC2)cc1)C(C)C)C(N)=O (stereo partly shown) [[^44Sc]Sc-NODAGA-AMBA] [metal not drawn]
octanol/water partition coefficient (logP) [1]: −2.81 ± 0.14
RCP, in-vitro stability ([2]; 15 min): over 98%
RCP, in-vitro stability ([2]; 90 min): over 98%
accumulation in the adrenal glands [3]: 0.5–3 %ID/g
accumulation in the kidneys [3]: 2–8 %ID/g
accumulation in the pancreas [3]: 1–4 %ID/g
accumulation in the urine [3]: 250–450 %ID/g
radiotracer uptake in blood, liver, spleen, gastrointestinal tract and thoracic organs [3]: Low radiotracer uptake
half-life in the blood [4]: less than 30 minutes
in-vivo stability [5]: remained stable
accumulation in PC3 tumors, blocked (PC-3 tumors; 60 min): 0.79 ± 0.16 %ID/g
accumulation in PC3 tumors (PC-3 tumors; 60 min after i.v. injection): 4.56 ± 0.45 %ID/g
accumulation in PC3 tumors, blocked (PC-3 tumors; 120 min): 0.69 ± 0.17 %ID/g
accumulation in PC3 tumors (PC-3 tumors; 120 min after i.v. injection): 4.14 ± 0.47 %ID/g
